How the values were obtained:
[1] = molecular target: 53BP1 fragment (a.a. 1221-1718) fused to an adenylate cyclase fragment (two-hybrid) (UniProt Q12888)
[2] = molecular target: 53BP1 fragment (a.a. 1221-1718) fused to an adenylate cyclase fragment (two-hybrid) (UniProt Q12888); experiment: cell-based or functional assay

Sequence of 53BP1 fragment (a.a. 1221-1718) fused to an adenylate cyclase fragment (two-hybrid) (Q12888 1221-1718 limits assumed): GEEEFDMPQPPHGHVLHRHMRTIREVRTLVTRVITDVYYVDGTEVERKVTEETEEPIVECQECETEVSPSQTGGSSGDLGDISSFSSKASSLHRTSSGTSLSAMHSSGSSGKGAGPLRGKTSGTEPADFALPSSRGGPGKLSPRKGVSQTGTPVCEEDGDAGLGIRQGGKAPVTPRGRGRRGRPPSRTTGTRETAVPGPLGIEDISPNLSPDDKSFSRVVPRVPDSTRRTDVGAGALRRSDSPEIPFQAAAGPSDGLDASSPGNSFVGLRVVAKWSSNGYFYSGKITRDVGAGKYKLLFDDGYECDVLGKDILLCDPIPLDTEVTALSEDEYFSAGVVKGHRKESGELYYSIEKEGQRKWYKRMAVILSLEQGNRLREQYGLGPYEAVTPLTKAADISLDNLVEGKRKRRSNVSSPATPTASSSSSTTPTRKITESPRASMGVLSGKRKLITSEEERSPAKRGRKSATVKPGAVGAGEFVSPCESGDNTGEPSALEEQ

Row | Substance | % GFP+ [1] [%] | percent GFP-positive E. coli cells, two-hybrid reporter, gate P5 [1] [%] | GFP positive population, high selection pressure [2] [%] | GFP positive population, low selection pressure [2] [%] | Percent GFP Positive Rep 1 [2] [%] | Percent GFP Positive Rep 2 [2] [%] | Percent GFP Positive Rep 3 [2] [%]
1 | i53-DM (designed binder) | 0.1 | 0.1 |  |  |  |  | 
2 | i53-adenylate cyclase fragment fusion protein (two-hybrid) (designed binder) |  | 9 | 3 | 17 | 9 | 7.6 | 11.8

Reference: patent US20230135471A1, “UBIQUITIN VARIANTS WITH IMPROVED AFFINITY FOR 53BP1” (Integrated DNA Technologies, Inc., priority 2021, published 2023)
